Measured values published in paper PMC12093266 (2025).

T1: TrnD (Bacillus thuringiensis, fluorescently labeled (in the MST of Fig. 5D only))
T1 chain: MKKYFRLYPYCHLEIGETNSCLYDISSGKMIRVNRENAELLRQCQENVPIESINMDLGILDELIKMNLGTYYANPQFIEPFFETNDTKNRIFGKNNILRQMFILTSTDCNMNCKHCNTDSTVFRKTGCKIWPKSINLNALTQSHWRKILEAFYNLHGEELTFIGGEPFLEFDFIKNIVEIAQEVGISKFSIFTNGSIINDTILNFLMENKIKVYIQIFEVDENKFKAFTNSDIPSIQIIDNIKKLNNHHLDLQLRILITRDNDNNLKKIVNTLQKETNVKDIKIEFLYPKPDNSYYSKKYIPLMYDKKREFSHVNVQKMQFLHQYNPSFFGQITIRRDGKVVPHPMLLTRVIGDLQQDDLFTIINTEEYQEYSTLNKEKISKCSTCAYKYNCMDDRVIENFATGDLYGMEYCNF

B1: TrnC (enzyme)
chain: MSKKRLSMMPFKTDKFSYALDGNTGRVIVADKPTLYIISHFHKFEKEELLKKTKGKFAELHQDYLTTYNYVSSLINMGMFYLSEKEDSDSPIDSKELAINSNQSQLILILTEKCNLRCEYCIYNDKYPKEMGYSDEEMDFETAKKAVDMYYELHMERVKRGHKRFPVITMYGGEPLLKFDLIKKVMEYAKGLMPDTLFYTTTNGTLLSEKMMDYFINNRIIITFSIDGFKENHDRNRVFVNGMPTFERAFKNIKRLQEKKKEQNIEQIISFNCCFDQYTDVYKVAKFFEEHYDLFNPFFVLYNQINPFDTLYFDWCDEQVKTGKWNFDKNNFKNAMQKIEHELYEAETCDDHFQQVAGPLVMKDFVLSIRNKDGQQQITRNSCIPTSKIAVSPDGTLTLCEKMCKKYPIGTVEKGLDWKAVDGVTEKLVRHFNSDSCKYCPIRTMCEACFMFLDENGRIKPSFCKSKKMAVKKNLESYFAKKEKGFDVMKVYNHTSDLDSVKEMVK
modifications: fluorescently labeled with RED-NHS (in the MST experiments where TrnC is the labelled partner)

Tests used:
Test in all cases: MST
E79A mutant of TrnD = E79A mutant of TrnD (Bacillus thuringiensis)
TrnC = molecular target: B1
TrnD = molecular target: T1, TrnD

Binder	Kd (E79A mutant of TrnD) [nM]	Kd (TrnC) [nM]	Kd (TrnD) [nM]
B1	590	–	–
MEVLNKQNVNIIPESEEVGGWVACVGACGTVCLASGGVGTEFAAASYFL [TrnB]	–	2470	2110
MEVMNNALITKVDEEIGGNAACVIGCIGSCVISEGIGSLVGTAFTLG [TrnA]	–	5410	4430
